Each block holds one binder with its values, some of them ahead of it.
Experiments:
[1] = target: T1, cynomolgus monkey 4-1BB (cynomolgus monkey); assay: FACS, CHO-K1/cyno 4-1BB cells [B]
T1 construct: whole, on cells; also called CHO-K1-cyno 4-1BB; CHO-K1/cyno4-1BB
Experimental: (§1) This example is intended to investigate the in vitro binding activity of anti-human 4-1BB HCAb and H2L2 monoclonal antibodies to human and cynomolgus monkey 4-1BB. Antibody binding experiments at the cellular level were conducted using a CHO-K1 cell strain overexpressing human 4-1BB (CHO-K1-hu 4-1BB, Genescript) and a CHO-K1 cell strain overexpressing cynomolgus monkey 4-1BB (CHO-K1-cyno 4-1BB, Genescript). Briefly, the CHO-K1-hu 4-1BB and CHO-K1-cyno 4-1BB cells were digested and resuspended in DMEM complete medium, and the cell density was adjusted to 1×10⁶ cells/mL. […] The cells were incubated at 4° C. for 1 h away from light. Thereafter, the cells in each well were rinsed twice with 100 μL of pre-cooled PBS, and centrifuged at 500 g at 4° C. for 5 min, and then the supernatant was discarded. […] The plate was incubated away from light at 4° C. for 30 min. The cells in each well were rinsed twice with 100 μL of pre-cooled PBS, and centrifuged at 500 g at 4° C. for 5 min, and then the supernatant was discarded. Finally, the cells in each well were resuspended in 200 μL of pre-cooled PBS, and the fluorescence signal values were read using a BD FACS CANTOII.

[2] = target: T2, human 4-1BB (human, UniProt Q07011 24-255); assay: FACS, CHO-K1/hu 4-1BB cells [B]
T2 construct: whole, on cells; also called CD137; TNFRSF9
Experimental: as §1

[3] = target: T3, mouse B7-H4 (mouse, UniProt Q7TSP5 25-257); assay: FACS, CHO-K1/m B7H4 cells [C]
T3 construct: whole, on cells; also called CHO-K1/m B7-H4; CHO-K1/mB7-H4
T3 sequence (looked up): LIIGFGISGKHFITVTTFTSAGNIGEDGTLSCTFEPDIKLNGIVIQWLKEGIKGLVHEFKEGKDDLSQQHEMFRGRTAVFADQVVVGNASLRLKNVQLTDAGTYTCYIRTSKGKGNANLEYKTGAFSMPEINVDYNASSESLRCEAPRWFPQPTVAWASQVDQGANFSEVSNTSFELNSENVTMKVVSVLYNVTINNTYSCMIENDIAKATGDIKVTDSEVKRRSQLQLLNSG
Experimental: (§2) This example is intended to investigate the in vitro binding activity of anti-human B7-H4 H2L2 monoclonal antibody to human/cynomolgus monkey/mouse B7-H4. Antibody binding experiments at the cellular level were conducted using a CHO-K1 cell strain overexpressing cynomolgus monkey B7-H4 (CHO-K1/cyno B7-H4, prepared in-house by Harbour Biomed), a CHO-K1 cell strain overexpressing mouse B7-H4 (CHO-K1/m B7-H4, prepared in-house by Harbour Biomed) and an SK-BR-3 cell line highly expressing human B7-H4 (ATCC® HTB-30). Briefly, the CHO-K1/cyno B7-H4 cells, CHO-K1/m B7-H4 cells or SK-BR-3 cells were digested and resuspended with PBS containing 2% BSA. The cell density was adjusted to 1×10⁶ cells/mL. […] The cells were incubated at 4° C. for 2 h away from light. Thereafter, the cells in each well were rinsed twice with 100 μL of pre-cooled PBS containing 2% BSA, and centrifuged at 500 g at 4° C. for 5 min, and then the supernatant was discarded. […] The plate was incubated away from light at 4° C. for 1 h. The cells in each well were rinsed twice with 100 μL of pre-cooled PBS containing 2% BSA, and centrifuged at 500 g at 4° C. for 5 min, and then the supernatant was discarded. Finally, the cells in each well were resuspended in 200 μL of pre-cooled PBS containing 2% BSA, and the fluorescence signal values were read using an ACEA Novocyte3000 flow cytometer.

[4] = target: T4, cynomolgus monkey B7-H4 (cynomolgus monkey, UniProt A0A2K5U6P5 25-282); assay: FACS, CHO-K1/cyno B7H4 cells [B]
T4 construct: whole, on cells; also called CHO-K1/cyno B7-H4; CHO-K1/cynoB7H4
T4 sequence: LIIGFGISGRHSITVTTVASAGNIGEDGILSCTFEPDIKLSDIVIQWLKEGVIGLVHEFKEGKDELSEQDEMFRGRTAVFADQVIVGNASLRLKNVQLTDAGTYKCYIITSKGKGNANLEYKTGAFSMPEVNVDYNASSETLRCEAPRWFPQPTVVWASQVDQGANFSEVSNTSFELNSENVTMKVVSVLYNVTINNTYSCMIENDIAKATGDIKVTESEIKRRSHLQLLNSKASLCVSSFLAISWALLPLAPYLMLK
Experimental: as §2

[5] = target: T5, human B7-H4 (human, UniProt Q7Z7D3 25-282); assay: FACS, SK-BR-3 cells [A]
T5 construct: whole, on cells; also called VTCN1; SK-BR-3 cell line highly expressing B7-H4
T5 sequence (looked up): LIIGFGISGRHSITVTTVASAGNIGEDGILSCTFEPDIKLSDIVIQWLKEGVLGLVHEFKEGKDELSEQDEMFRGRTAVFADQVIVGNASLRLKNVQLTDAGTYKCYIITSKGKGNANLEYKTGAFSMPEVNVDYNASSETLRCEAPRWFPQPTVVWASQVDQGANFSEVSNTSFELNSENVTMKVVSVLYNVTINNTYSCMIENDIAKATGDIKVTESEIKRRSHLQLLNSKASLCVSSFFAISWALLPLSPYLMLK
Experimental: as §2

[6] = target: T1, cynomolgus monkey 4-1BB; assay: FACS, CHO-K1/cyno 4-1BB cells [E]
Experimental: as §1

[7] = target: T2, human 4-1BB; assay: FACS, CHO-K1/hu 4-1BB cells [F]
Experimental: as §1

[8] = target: T2, human 4-1BB; assay: FACS, CHO-K1/hu 4-1BB cells [A]
Experimental: as §1

[9] = target: T1, cynomolgus monkey 4-1BB; assay: FACS, CHO-K1/cyno 4-1BB cells [C]
Experimental: as §1

[10] = target: T2, human 4-1BB; assay: FACS, CHO-K1/hu 4-1BB cells [C]
Experimental: as §1

[11] = target: T1, cynomolgus monkey 4-1BB; assay: FACS, CHO-K1/cyno 4-1BB cells [D]
Experimental: as §1

[12] = target: T2, human 4-1BB; assay: FACS, CHO-K1/hu 4-1BB cells [D]
Experimental: (§3) Antibody binding experiments at the cellular level were conducted using a CHO-K1 cell strain overexpressing human 4-1BB (CHO-K1-hu 4-1BB, Genescript) and a CHO-K1 cell strain overexpressing cynomolgus monkey 4-1BB (CHO-K1-cyno 4-1BB, Genescript). Briefly, the CHO-K1-hu 4-1BB and CHO-K1-cyno 4-1BB cells were digested and resuspended in DMEM complete medium, and the cell density was adjusted to 1×10⁶ cells/mL. […] The cells were incubated at 4° C. for 1 h away from light. Thereafter, the cells in each well were rinsed twice with 100 μL of pre-cooled PBS, and centrifuged at 500 g at 4° C. for 5 min, and then the supernatant was discarded. […] The plate was incubated away from light at 4° C. for 30 min. The cells in each well were rinsed twice with 100 μL of pre-cooled PBS, and centrifuged at 500 g at 4° C. for 5 min, and then the supernatant was discarded. Finally, the cells in each well were resuspended in 200 μL of pre-cooled PBS, and the fluorescence signal values were read using a BD FACS CANTOII.

[13] = target: T1, cynomolgus monkey 4-1BB; assay: FACS, CHO-K1/cyno 4-1BB cells [A]
Experimental: as §1

[14] = target: T2, human 4-1BB; assay: FACS, CHO-K1/hu 4-1BB cells [E]
Experimental: as §3

[15] = target: T1, cynomolgus monkey 4-1BB; assay: FACS, CHO-K1/cyno 4-1BB cells [F]
Experimental: as §1

T2 sequence (Q07011 24-255): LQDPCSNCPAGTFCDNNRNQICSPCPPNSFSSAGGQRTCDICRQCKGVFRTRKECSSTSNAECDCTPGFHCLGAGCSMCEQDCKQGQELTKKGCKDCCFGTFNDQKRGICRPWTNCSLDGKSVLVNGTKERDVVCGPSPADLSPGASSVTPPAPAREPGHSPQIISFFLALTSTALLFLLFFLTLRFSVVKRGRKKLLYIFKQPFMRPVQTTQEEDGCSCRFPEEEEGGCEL

EC50 [1]: 25 nM
Maximum MFI [1]: 68400 MFI
EC50 [2]: 5.87 nM
Maximum MFI [2]: 1450 MFI
B1: PR001767 (antibody, human IgG1, V domains shown)
VH: EVQLVETGGGLIQPGGSLRLSCAASGFTVSSNYMSWVRQAPGKGLEWVSVIYSDGSTYYADSVKGRFTISRDNSKNTLYLQMNSLRAEDTAVYYCARDRYYGSGNYPTAYYGMDVRGQGTTVTVSS
notes: anti-4-1BB HCAb, human IgG1 Fc

EC50 [3]: 2.57 nM
Maximum MFI [3]: 1.69e+06 MFI
EC50 [4]: 2.38 nM
Maximum MFI [4]: 1.92e+06 MFI
EC50 [5]: 2.22 nM
Maximum MFI [5]: 257000 MFI
B2: PR002037 (antibody, human IgG1, kappa, V domains shown)
VH: QVQLVQSGAEVKKPGSSMRVSCKASEDTFSSYAISWVRQAPGQGLEWMGGTAPIFGTTNYAQKFQGRVTITADKSTSTAYMELSSLRSEDTAVYYCARGGPYFDYWGQGTLVTVSS
VL: EIVMTQSPASLSVSPGERATLSCRASQSVSSNLAWYQQKPGQAPRLLIYGASTRATGIPARVSGGGSGTEFTLTISSLQSEDFAVYCCQQYKNWPFTFGPGTKLEIKR
notes: also called 1025_B-1H11 clone

EC50 [3]: 2.38 nM
Maximum MFI [3]: 1.55e+06 MFI
EC50 [4]: 2.08 nM
Maximum MFI [4]: 1.86e+06 MFI
EC50 [5]: 1.87 nM
Maximum MFI [5]: 245000 MFI
B3: PR002410 (antibody, human IgG1, kappa, V domains shown)
VH: QVQLVQSGAEVKKPGSSMRVSCKASEDTFSSYAISWVRQAPGQGLEWMGGTAPIFGTTNYAQKFQGRVTITADKSTSTAYMELSSLRSEDTAVYYCARGGPYFDYWGQGTLVTVSS
VL: EIVMTQSPASLSVSPGERATLSCRASQSVSSNLAWYQQKPGQAPRLLIYGASTRATGIPARVSGGGSGTEFTLTISSLQSEDFAVYYCQQYKNWPFTFGPGTKLEIKR
notes: anti-B7-H4 H2L2 recombinant fully human antibody, human IgG1 / kappa; also called PR002037 variant

EC50 [6]: 2.41 nM
Maximum MFI [6]: 15900 MFI
EC50 [7]: 0.28 nM
Maximum MFI [7]: 1830 MFI
B4: PR001836 (antibody, human IgG1, V domains shown)
VH: EVQLLESGGGLVQPGGSLRLSCAASGFIFSNFAMTWVRQPPEKGLKWVSSINGSGFNTYYTDSVKGRFTISRDNSRNTLYLQMNRLTAEDTAVYFCAKEGSSETDDHYYNVDVWGQGTTVTVSS
notes: as for B1

Maximum MFI [1]: 57700 MFI
EC50 [8]: 0.616 nM
Maximum MFI [8]: 1600 MFI
B5: PR001763 (antibody, human IgG1, V domains shown)
VH: EVQLLESGGGLVQPGGSLRLSCTASGFTFSNYAMSWVRQAPEKGLEWVSSISGSGGSTFYADSVKGRFTISRDNSKNTLYLQMNRLTAEDTAVYYCAKEGSNGTDDYHYDIDVWGQGTTVTVSS
notes: as for B1

EC50 [9]: 6.73 nM
Maximum MFI [9]: 48000 MFI
EC50 [10]: 1.27 nM
Maximum MFI [10]: 1540 MFI
B6: PR001774 (antibody, human IgG1, V domains shown)
VH: EVQLVESGGGLVQPGGSLRLSCAASGFTFSSFAMTWVRQAPEKGLEWVSTISGSGDTTYYADSVKGRFTISRDSSKNTLYLQMNSLRAEDSAVYFCAKEATAMASDYYYGVDVWGQGTTVTVSS
notes: as for B1

EC50 [9]: 6.97 nM
Maximum MFI [9]: 62200 MFI
EC50 [2]: 0.846 nM
Maximum MFI [2]: 1550 MFI
B7: PR001768 (antibody, human IgG1, V domains shown)
VH: EVQLLESGGGLVQPGGSLRLSCAASGFTFSNYAMTWVRQAPGKGLEWVSSISGSGDSTYYADSVKGRFTISRDNSKNTLYLQMNSLRAEDTAVYYCAKEGTGTTSDYYYNVDVWGQGTTVTVSS
notes: as for B1

EC50 [11]: 3.1 nM
Maximum MFI [11]: 58300 MFI
EC50 [12]: 0.492 nM
Maximum MFI [12]: 1760 MFI
B8: PR001781 (antibody, human IgG1, V domains shown)
VH: EVQLLESGGGLVQLGGSLRLSCAASGFTFSSYAMTWVRQAPEKGLEWVSSISGSGGNTYYADSVKGRFTISRDNSKNTLYLQMNSLRAEDTAVYYCAKERTGTTGDYYYNVDVWGQGTTVTVSS
notes: as for B1

EC50 [13]: 0.575 nM
Maximum MFI [13]: 11200 MFI
EC50 [8]: 0.212 nM
Maximum MFI [8]: 1640 MFI
B9: PR001758 (antibody, human IgG1, V domains shown)
VH: EVQLLESGGGLVQLGGSLRLSCAASGFTFSRYAMTWVRQAPEKGLEWVSSISGSGDDTYYGDSVKGRFTISRDNSQNTVYLQMNSLRAEDTAVYFCAKEKAGTTGDYYYNVDVWGQGTTVTVSS
notes: anti-4-1BB fully human heavy-chain-only antibody (HCAb): VH fused to human IgG1 Fc

EC50 [9]: 3.77 nM
Maximum MFI [9]: 65700 MFI
EC50 [10]: 0.532 nM
Maximum MFI [10]: 1720 MFI
B10: PR001771 (antibody, human IgG1, V domains shown)
VH: EVQLLESGGGLVQPGGSLRLSCAASGFTFSNYAMTWVRQPPGKGLEWVSSISGSGGSTYYADSVKGRFTISRDNSKNTLYLQMNSLRAEDTAVYYCAKEGTGTTSDYYYNVDVWGQGTTVTVSS
notes: as for B1

EC50 [6]: 0.899 nM
Maximum MFI [6]: 14000 MFI
EC50 [14]: 0.209 nM
Maximum MFI [14]: 1830 MFI
B11: PR001830 (antibody, human IgG1, V domains shown)
VH: EVQLLESGGGLVQPGGSLRLSCTASGFTFSNYAMSWVRQAPEKGLEWVSSISGSGGSTFYADSVKGRFTISRDNSKNTLYLQMNSLRAEDTAVYFCAKEGSSETDDHYYNVDVWGQGTTVTVSS
notes: as for B1

EC50 [11]: 2.99 nM
Maximum MFI [11]: 55500 MFI
EC50 [12]: 0.708 nM
Maximum MFI [12]: 1700 MFI
B12: PR001780 (antibody, human IgG1, V domains shown)
VH: EVQLLESGGGLIQPGGSLRLSCAASGFTFSSFAMTWVRQAPGKGLEWVSTISGSGDNTYYADSVKGRFTISRDNSKNTLYLQMNSLRAEDTAVYFCAKEDTAVASDYYYNIDVWGQGTTVTVSS
notes: as for B1

EC50 [15]: 1.25 nM
Maximum MFI [15]: 7300 MFI
EC50 [7]: 0.37 nM
Maximum MFI [7]: 1670 MFI
B13: PR001840 (antibody, human IgG1, V domains shown)
VH: EVQLVESGGGLVQPGGSLRLSCAASGFTFSSYWMHWVRQAPGKGLVWVSRINSDGSSTSYADSVQGRFTISRDNAKNTLYLQMNSLRAEDTAVYYCVRKGSSSYYHYSIEDDWGQGTLVTVSS
notes: as for B1

EC50 [1]: 5.33 nM
Maximum MFI [1]: 77300 MFI
EC50 [2]: 0.249 nM
Maximum MFI [2]: 1560 MFI
B14: PR001764 (antibody, human IgG1, V domains shown)
VH: EVQLLESGGGLVQPGGSLRLSCAASGFTFSSYAMSWVRQAPEKGLEWVSAISGGGGSTYYADSVKGRFTISRDNSKNTLYLQMDSLKAEDTAVYYCAKEGTTETDDYHYNMDVWGQGTTVTVSS
notes: as for B1

EC50 [6]: 1.02 nM
Maximum MFI [6]: 12600 MFI
EC50 [14]: 0.21 nM
Maximum MFI [14]: 1710 MFI
B15: PR001833 (antibody, human IgG1, V domains shown)
VH: EVQLLESGGGLVQPGGSLRLSCAASGFTFSSYAMSWVRQAPEKGLEWVSSISGSGGSTFYADSVKGRFTISRDNSKNTLYLQMNSLRAEDTAVYFCAKEGATETDDYHFNTDVWGQGTTVTVSS
notes: as for B1

EC50 [3]: 3.61 nM
Maximum MFI [3]: 353000 MFI
EC50 [4]: 1.1 nM
Maximum MFI [4]: 1.82e+06 MFI
EC50 [5]: 0.367 nM
Maximum MFI [5]: 239000 MFI
B16: PR001476 (antibody, human IgG1, kappa, V domains shown)
VH: QVQLVESGGGVVQPGRSLRLSCAASGFTFRSFGMHWVRQAPGKGLEWVAVISYDGSNEYYADSVKGRFIISRDNSKDTLYLQMNSLRAGDTAVYYCAKGGGLRWYFAYWGQGTLVTVSS
VL: EIVMTQSPATLSVSPGERATLSCRASQSISSNLGWYQQKPGQAPRLLIYGASTRATGIPARFSGSGSGTEFTLTISSLQSEDFAVYYCQQYNSWPPLTFGGGTKVEIKR
notes: anti-B7-H4 H2L2 recombinant fully human antibody, human IgG1 / kappa; also called 80C8-2E9 clone
